In patent EP3922993A1:

Target: T1, Recombinant GST-tagged hDPP3 (human) (UniProt Q9NY33)
T1 sequence: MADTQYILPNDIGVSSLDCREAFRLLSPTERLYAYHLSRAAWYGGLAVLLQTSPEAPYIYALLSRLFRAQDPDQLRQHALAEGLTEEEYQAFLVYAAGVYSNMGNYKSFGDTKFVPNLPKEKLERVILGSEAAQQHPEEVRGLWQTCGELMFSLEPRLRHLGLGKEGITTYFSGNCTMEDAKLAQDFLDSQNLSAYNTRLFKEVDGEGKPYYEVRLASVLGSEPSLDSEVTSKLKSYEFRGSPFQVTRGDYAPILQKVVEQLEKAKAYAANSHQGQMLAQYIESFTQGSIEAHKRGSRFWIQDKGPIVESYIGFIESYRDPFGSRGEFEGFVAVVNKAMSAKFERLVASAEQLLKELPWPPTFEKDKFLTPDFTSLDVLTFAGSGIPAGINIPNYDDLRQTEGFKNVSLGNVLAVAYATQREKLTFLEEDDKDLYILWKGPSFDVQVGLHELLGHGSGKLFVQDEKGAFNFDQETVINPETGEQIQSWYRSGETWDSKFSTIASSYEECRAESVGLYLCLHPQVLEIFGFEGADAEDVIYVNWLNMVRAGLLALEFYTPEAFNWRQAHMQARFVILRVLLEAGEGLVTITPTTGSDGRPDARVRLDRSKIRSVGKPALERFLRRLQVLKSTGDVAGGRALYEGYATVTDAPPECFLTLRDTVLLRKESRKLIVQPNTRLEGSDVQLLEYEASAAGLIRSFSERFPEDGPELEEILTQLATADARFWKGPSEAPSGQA
Assay: cell-based or functional assay

Max inhibition of hDPP3: 25%
B1: anti-DPP3 antibody clone 2555 (antibody, from another filing, V domains shown)
VH: EVQLQQSGPELVKPGASVKISCKASGYSFTGYYIHWVKQSPENSLEWIGEINPSTGGTNYNQKFKGKATLTVDKSSSTAYMQLKSLTSEESAVYYCTRSYYGIYSWFAYWGQGTLVTVSA
VL: DIKMTQSPSSMYASLGERVTITCKASQDIKSYLSWYQQKPWKSPKTLIYYATSLADGVPSRFSGSGSGQDYSLTISSLESDDTATYYCLQHGESPRTFGGGTKLEIK
